The values below come from the RNAGym collection of RNA variant scans (doi:10.1021/acssynbio.7b00057).

B1: Pistol ribozyme (parent)
chain: GGGUCGUUGUUCCAUAAUCGCGUGGAUAUGGCACGCAAGUUUCUACCGGGCACCGUAAAUGUCCGACUGGAGCCGUUCGGGCGGCUAUAAACAGACCUCAGGCCCGAAGCGUGGCGGCACCUGCCGCCGGUGGUAAAAAAGAUCGGAAGAGCACACGUCU

Variants of B1 are the subject of this data set. As to the kind of experiment: aptazyme ON/OFF ratio, guanine; higher = stronger switching; co-transcriptional cleavage with and without guanine.
U7C U8C U10G C12G C13A: the “aptazyme ON/OFF ratio” value came to 1.11.
The result for U7C U8A G9U U10G U11G reads 1.08.
The result for U7C U8A G9U U10G U11G C12U reads 1.25.
The result for U7A U8G G9C U10A U11A C12U C13A reads 1.42; that for U7C G9A U10C U11G C12G C13G, 1.11; that for U8G G9C U10G C12A, 1.19.
Turning to U7A U8C G9C U11A C12G, the “aptazyme ON/OFF ratio” value turned out to be 1.09.
The result for U7G U8C G9C U10C U11C C12A C13U reads 1.05; that for U7A U8G G9C U10A U11G C12G C13A, 1.14; that for U7C U8G U11A, 1.88.
The result for U7C U8A G9A U10C U11C C12U C13G reads 1.04.
On to U7G U10A U11G C13U, for which the “aptazyme ON/OFF ratio” value was found to be 1.22.
The result for C12U reads 1.91.
The same measure for U7C U8A C12U C13U: 1.32; for U8A U11G: 1.25.
The result for U7G U10A U11A C12U C13U reads 1.16; that for G9C U10G U11A C12G, 1.27; that for U7C U8G G9C U10C U11G C13U, 1.19.
For U8A U11C C12A, the “aptazyme ON/OFF ratio” value is 1.29.
On to U7A U8G G9C U10C U11C C12A C13U, for which the “aptazyme ON/OFF ratio” value was 1.04.
Turning to U7A U8G G9U U10C U11A C13G, the “aptazyme ON/OFF ratio” value came out at 1.33.
The result for U7A U8A U10G U11A C13G reads 1.16; that for U7A U8C G9A U11A C12U C13U, 1.18.
The same measure for U7C U8A G9A U10A C13G: 1.09; for U7C U8C G9U U10A C12U: 1.17.
Take G9U U10G U11G C13G: the “aptazyme ON/OFF ratio” value was determined as 1.19.
Consider U7C U8G G9U U10G U11A C12A C13A, for which the “aptazyme ON/OFF ratio” value stood at 1.18.
Regarding U7C G9A U10C U11A C13G, the “aptazyme ON/OFF ratio” value was 1.12.
Turning to U8G U10G U11A C12G C13U, the “aptazyme ON/OFF ratio” value came out at 1.34.
The result for U7G U8G G9A U10C C13A reads 1.12; that for U7A G9U U10G U11A C12U C13A, 1.16.
The result for U7A G9C U10A U11A C12A C13U reads 1.09.
Take U7G U10C U11C C12U C13U: the “aptazyme ON/OFF ratio” value is 1.09.
On to U7G U8G U10A U11G, for which the “aptazyme ON/OFF ratio” value was found to be 1.65.
The result for U7A G9U U10G C13G reads 1.14; that for U7A U8C G9U U10C C12G C13A, 1.13.
For the variant U7G U8A G9C C12A C13G, the “aptazyme ON/OFF ratio” value was found to be 1.03.
The result for U7A G9C U10C U11C C12G C13G reads 1.09.
Take U8C G9U U10C U11A C12G C13A: the “aptazyme ON/OFF ratio” value turned out to be 1.08.
The same measure for U7C U10G C12A C13U: 1.15.
The same measure for U8A G9U U10G U11C C12A: 1.04; for U7G U8G U10G U11C: 2.08.
The same measure for U7G U8A G9A U10G U11C C13U: 1.05; for U7A U8C G9A U10G U11A C12A C13U: 1.24; for U8A U10C U11G C12A C13G: 1.23.
As to U7A U8A G9C U10A U11C C13U, the “aptazyme ON/OFF ratio” value turned out to be 1.04.
The same measure for U7C G9A C12U C13G: 1.18; for U8A G9A U11C C12A C13U: 1.2; for U7G U8G G9C U10A C12G C13A: 1.05.
Turning to U8C U10G C12G C13G, the “aptazyme ON/OFF ratio” value worked out at 1.12.
The same measure for G9U U10G U11A C13G: 1.14; for U8C G9C U10C U11A C12G C13A: 1.06.
As for U7G U8C G9A U10C U11C C13U, the “aptazyme ON/OFF ratio” value amounted to 1.01.
U7A U8C U10A U11A C12U: the “aptazyme ON/OFF ratio” value was 1.18.
The same measure for U7C U8G G9A U10C U11A C12U C13G: 1.05; for U8A U10G U11C C13G: 1.11; for G9A U10G U11G C12U C13U: 1.55.
The result for U7C U8G U10G U11G C12G reads 1.21; that for U8C G9U U10G C12G C13U, 1.3.
The same measure for U7C U8G G9C U10G C13U: 1.47; for U7G U8C G9A U10A U11A C12U C13U: 1.14; for U7C U8C G9U U11C C12U C13G: 1.05.
On to U7A U8A G9A U10G U11A C12G C13G, for which the “aptazyme ON/OFF ratio” value came out at 1.15.
The same measure for U7A U8G U10C U11G C12U C13G: 1.44.
The same measure for U7C U8A U10G C12U C13G: 1.13; for U7A U8A U10A C12G C13A: 1.14; for U7A U8A U10C U11A C12U: 1.14.
The result for U7G U8G C12U reads 1.21; that for G9A U11G C12U, 2.06.
Turning to U7G U8A G9A U11A C12A C13U, the “aptazyme ON/OFF ratio” value was determined as 1.21.
With U7G U8A G9C U10A U11C, the “aptazyme ON/OFF ratio” value was 1.06.
In the case of U7A G9A U10C C13U, the “aptazyme ON/OFF ratio” value was 1.12.
As to U7C G9A C12A C13A, the “aptazyme ON/OFF ratio” value is 1.24.
The same measure for U8C G9A U10A C12G C13U: 1.31; for U7G G9A U10C U11C: 1.04.
The same measure for U7C U8C G9A U10C U11A C12U C13U: 1.3; for U7C U8A G9C U10A U11C C12G C13G: 1.29.
The result for U7C U8C G9U U11C C12G C13U reads 1.08; that for U8G G9U U11G C12U C13A, 1.13; that for U7C U8A G9C U10C U11G C12A, 1.11.
Take U7A U8G G9U U10C U11A C12G C13A: the “aptazyme ON/OFF ratio” value was 1.27.
The result for U7A U8A U10A U11G C12G C13A reads 0.986; that for U7A U8A G9U U10A U11G C12U, 1.46.
